Source: patent publication US20210371492A1 (INNOVATIVE CELLULAR THERAPEUTICS, published 2021)
Numbering of substitutions follows the chain as printed.

B1: R8C11VH/L4G6VK-mIgG2a (antibody, V domains shown)
VH: QVQLQQWGAGLLKPSETLSLTCAVFGGSFSGYYWSWIRQPPGKGLEWIGEINHRGNINDNPSLKSRVTISVDTSKNQFALKLSSVTAADTAVYYCARERGYSFGNYDHWGQGTLVTVSS
VL: EIVMTQSPATLSVSPGERATLSCRASQTVTRNLAWYQQKPGQAPRLLIYGASTRATGIPARFSGSGSGTEFTLTIGSLQSEDFAVYYCQQYKSWPRSFGQGTNVEIK
notes: Whole antibody with human variable regions and mouse constant regions (pMABG2a, pMABK); also called R8C11+L4G6
B2: R8C11VH/L3B4VK-mIgG2a (antibody, V domains shown)
VH: B1 VH
VL: B1 VL with S97T
notes: Whole antibody with human variable regions and mouse constant regions (pMABG2a, pMABK); also called R8C11+L3B4
B3: R7C8+L1E2 (Fab clone from the recombinant human phage antibody library) (Fab, V domains shown)
VH: B1 VH with S102T, F103Y, D107E
VL: B1 VL with T30N, S93T, S97T

What was measured:
[1] = target: T1, GCC-His fusion protein (recombinant extracellular region of GCC with His tag) (human, UniProt P25092 24-430); experiment: BIAcore (SPR), GCC-His as mobile phase
T1 construct: also called GUC2C-His; recombinant GCC extracellular domain

[2] = target: T1, GCC-His fusion protein (recombinant …); experiment: ELISA, GUC2C-his coat 3ug/ml, antibody titrated, OD490
[3] = target: T1, GCC-His fusion protein (recombinant …); experiment: phage-ELISA, Fab phage library screened on GCC-His

Row | Binder | Kd [1] [nM] | EC50 (read off the curve) [2] [nM] | binding result [3]
1 | B1 | 11.8 | ~2 | 
2 | B2 | 11.2 |  | 
3 | B3 |  |  | binds
